Source: patent publication US20210373021A1

Target: SNAP-25 Reporter 1 (human) (UniProt P60880)
Assay: cell-based or functional assay

Chain of UniProt P60880 (P60880 other isoform, or with tags, fused parts or gaps limits assumed): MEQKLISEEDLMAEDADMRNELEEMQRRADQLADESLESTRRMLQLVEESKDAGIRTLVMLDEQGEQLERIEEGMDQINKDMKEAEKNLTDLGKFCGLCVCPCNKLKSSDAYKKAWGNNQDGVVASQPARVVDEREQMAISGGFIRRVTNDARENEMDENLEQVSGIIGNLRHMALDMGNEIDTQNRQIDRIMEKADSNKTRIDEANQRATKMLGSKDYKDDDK

Substance “Galderma BoNT/A drug product QM-1114 (from UniProt P0DPI0 2-1296) (enzyme)” has an EC50 of SNAP-25 cleavage (Western blot), 4 hours at ambient temperature of 844 U/ml, an EC50 of SNAP-25 cleavage (Western blot), 22 hours at 37° C. of 687 U/ml and an EC50 of SNAP-25 cleavage (Western blot), 22 hours at room temperature of 204 U/ml. For the same substance, the EC50 of uncleaved product in RLU (sandwich ELISA), 22 hours at 37° C. was 112 U/ml and the EC50 of uncleaved product in RLU (sandwich ELISA), 22 hours at room temperature was 55.3 U/ml.
